Experimental data reported in the DeepSol protein solubility set.

Experiment: soluble on expression in E. coli; label from the status in PepcDB or PDB records

Row | Sequence | soluble on expression in E. coli
1 | MSLGETTNLTFLRTDGQNIVTGTGEIFHIRGVTLTNNFWGNWVNGESEKLQSQGMDPIIRPLVQDAWVLTDDDFERIKDLGCNTVLYDINYQLFAEDNPNREENLKKLKEHIRRFSSMDIYTAVMLMAPPGLDSINDAYEKYKHGSERIKSVFEDDTYYEQWVEMWKYLAEELKDFKGVAGYGLINQPRAPSESEGGIGIFRERLNNVCREIRKIDKNHIIFVPEYNSREANPGESYWNEKTNSYVIDNGEQGIIWERGLVKVDSSNVVYLFHFFEPYNFVNDGVGDFDAESLEAQVRKRYEWAKNVGRAPLLTEYGISRVNSVDKRVQWLETVHDIFDKYGISASYFQYKNAVGAFINVKTGFNALYGEYVSWDSEIGLNPFYFVNEHVATSAKENHFDEALKEYYLKGKNLKKISILDNQPILETLQNFWKEGHHHHHH | soluble
2 | MSLGEVAPTLAAYDLQGEAVALEQWEGKLVYLNFWSVNCGGCLAEMATLNQLSQEYQDQAVVVAINTDPEQVEIAPVLAQHNINYPVIRDQLGITQERYQVIGTPTSFLIDRNGKVIEWHQGVRNEQELTALFKQKVSEKEGHHHHHH | not soluble
3 | MSLGFSTYRATNYNEGTAYGNTPVILTLKSTSKSNLKTAVEELQKLNASYSNTTTLAGDDRIQTAIEISKEYYNNDGEKQDHSADVKENVKNVVLVGANALVDGLVAAPLAAEKDAPLLLTSKDKLDSSVKSEIKRVLDLKTSTEVTGKTVYLAGGVNSVSKEVVTELESMGLKVERFSGDDRYETSLKIADEIGLDNDKAYVVGGTGLADAMSIASVASTKLDGNGVVDKTNGHATPIVVVDGKADRISDDLDSFLGSADVDIIGGFASVSEKMEEAISDATGKGVTRVKGDDRQDTNSEVIKTYYANDTEGHHHHHH | soluble
4 | MSLGGQEKEHLTMRAEEWHLVSGAVSMRGRRPTDEDTMVVVAAIHSHRNIRIQALFDGHGGPNVAQFAANRLQSLFARQKGYSRRDLEKICHALDEELKKNNVRRGGSTGVIMVIEKVEKPEKVIVRGRQILKDPGLTPLKEHYRKQAGPAEEITLGTSETPFRLHVANVGDSRAMLVLEDEYYEMTKDHKPEDPEEKSRILRAGASVTDSEGTSVPRIDGSLALSRSFGDFSLKQGSGSTPDAVISTPDVRQFYAGYNDLLVLFCDGVTEPVASSWPQVAAYTREIFVQTGDVVKTAVALAEQAYSAGSQDNLSAVVTRLRPDPAEEGHHHHHH | soluble
5 | MSLGGSVEVLHWWTAGGEAKAVSALKDQFEAEGGTWIDSPVAGGGGDAAMTALRSRVIAGNPPSAVQLKGPSIQEWAAEGVVANLDDIAKAENWDKLLPALLKSVVTYEGHYVAVPVNIHRVDWLWANPAVLAKAGVAVPTTWDEFNTAAEALKAKGIIPLAHGGQPWQDATLFEVVVLGLGGPAFYHKALVELDDAALRGDTMVKVFDQMRRLRGFVDPNFSGRDWNLATAMVINGEAGFQIMGDWAKGEFLGAGKVPGKDFLCIAAPGKGFLLNSDSLVMFDVKGADKIEGQKTLARLVLGETFQRTFNTLKGSIPARQGMDLADFDACAQKSQADLTKAIAADSLEPSMAHEMAVPRSVRGAIMDVVTAHFNSSESSAEAVAHLADSIAQAREGHHHHHH | soluble
6 | MSLGILRQAHWRNPSLERSPALILAHGCFEDVHGKVAHGLVRGTDRFDIVAVIDPDCAGHDAGTLLDGRPRNIPVFASIEAALAQGRRRPAVAIVGMATHGGRFTETLRAALFEAAAAGLSLVNGLHDLAGDDPEIAAETARHGASILDLRRPRAVAELHFWTGQIHGVAAPRIAVLGTDCALGKRTTARLLTQALNADGIRTEMIYTGQTGWMQGGRYGFILDALPNDFVSGELEHAILTCYREVRPDLIILEGQSALRNPSGPCGAELLLSGAAAGVILQHAPGRRHYDGFEGSRFRIPPVEDEIRLIEHYGVPVLGVSLNGRDSGPEGLREAQRRLARTLDVPVVCPLEDGVTDLLPPLRALLEREEVAEGHHHHHH | soluble
7 | MSLGKALEIDLGNRLQALDIDGPTREILRECRPIIEKIIDEAVLDSYNKILAYPEVRDAYAGMKIEDACQAQRTHWIDDVFAGTFAEEQIRNGVEIFSKRQRQGLSLRWYFCFYSNILRCMIAAVYPQYRRDKEKLQRVIGALTRTVMFELEIASTAYMHSAQEQVAVALNDAAGQFEREGHHHHHH | soluble
8 | MSLGKRLKEARQKAGYTQKEAAEKLNIGNNNLSNYERDYRDPDTDTLLKLSNLYNVSTDYLLGKDEVSKKNETDLLNKTINEAIQELKDEDTLLFMNDGEFDEETARLVKKALKNGIKFIDELKKKE | not soluble
9 | MSLGLTTKPLSLKVNAALFDVDGTIIISQPAIAAFWRDFGKDKPYFDAEHVIQVSHGWRTFDAIAKFAPDFANEEYVNKLEAEIPVKYGEKSIEVPGAVKLCNALNALPKEKWAVATSGTRDMAQKWFEHLGIRRPKYFITANDVKQGKPHPEPYLKGRNGLGYPINEQDPSKSKVVVFEDAPAGIAAGKAAGCKIIGIATTFDLDFLKEKGCDIIVKNHESIRVGGYNAETDEVEFIFDDYLYAKDDLLKWEGHHHHHH | soluble
10 | MSLGMAAWDRNSINPLQAYVYKTSKLPFYDENLHNLAEKIAPHCLLAHLRGVSYHDKQVVTDQNVHPFLYPVTSIALAHNGMLHNFETMRYDLLKYVKTEYRKYIKGTTDSEWIYAVFLSQLENPKGHFDASEIINAVIATLKILKTVRQQNNIVINSPVNLFLTNGDFIAATRFCLDYGWKPKDATQSTHFTYHSLWYTYGERYGFYENEYKMKGGTINSSIIIASEPLTENTTTWLEVPEYTLIFANQVDGEIKITSQDINEGHHHHHH | not soluble
11 | MSLGPVENHSLPRTAAFFDLDKTVIAKSSTLTFSKSFYQGGLINRRAVLRTAYAQFVFLAGGADHDQMERMREYLSALCRGWNVRQVKEIVAETLHDLIDPIIYDEAASLIEEHHTAGRDVVIVSTSGAEVVEPIGELLGADRVVATRMIVGDDGCFTGEVEYYAYGPTKAEAIKELAASEGYDLARCYAYSDSATDLPMLESVGHPHAVNPDRALRREAIARQWPILDFHRPVRLKQRLPALSVPPREGHHHHHH | soluble
12 | MSLGQGSILTKANTINNMEYVTEVFGAIPTEEQVSYQKEELTAFIHFGVNTFTGREWGDGTENPEIFNPTNLDADQWVKTLAEAGFGRVILTAKHHDGFCLWDSAYTKHDVASSPWKNGKGDVVKEVLEACAKYNIKFGVYLSPWDQNSEHYGDGNGGDYNEFYMNQLRELLTNYGPIAEVWMDGAKGSNVKQEYNFEEWFALIKKLQPECLIFSPQGPDIRWIGNEKGYAGEPCWSTIDIEKMKERENPTYLNNGEEGGPNWIVGESDVSIRPGWFYHESQDNEVKSLEKMMDIYFKSIGRNSVLLLNVPPNKEGKLHENDVNRLKKFGETIKELFNDDLALNKEVIVDGFANNDETYGANKIVDGDYDTYWAPDNSSKTGTIEIDLGGSKEFDVISLQEYIPLGQRVSSFNVEVLQGENWNKVYEGKTIGYKRLVRIAPTKGEKIRINITGSLEVPLINNVGVYKQPISIEEGHHHHHH | soluble
13 | MSLGSGHIRAAEALQKFVVQKYPKSKTLIVDTFKYINPLIHTVVVDGYLNIVKYVPEIYGGLYRMSEHIKNIDRMSRGFSNLLTPKIHRLIQSFKPSIIVCTHPFPLQMIAHLKKHYNLDVPSIAIVTDFVNHPFWFQNNIEAYIVAHDYIKRDMIECGISEDRIFTYGLPVAPEFLKLEHHHHHH | not soluble
14 | MSLGYRVGNSDSTSLLSAFAPPERAKKKSKEKRPLQAARFLSLLYPKTDPHSAVQDPSLVHEEHQTRLAYLQDRLCSTGDILKNTRTLETIAAYKQAVKEFVQYAIKHNYTTESKSSIRIDRGTGMPDTVIFTKIKVIDQKLASFVRELMSHQVDQLTVLQKTEEIYGMLVDLLIEGHHHHHH | soluble
15 | MSLHLIPRPKSVINHEGEFFIERDTEIILSSELSFEDLNLAIMIQKEIEKVLDFKLNINKLFMDKKYSNSIILREFKFENEEEYKIEIKENQVIIEGFGAGLFYGCQSFRQLVREFGACIPNLTIEDSPYFKYRGFYHDVTRGMVPTLDTLKRLVDKAAFYKINQLQLYIEHTFAFKGMSEVWMDKDPLTAEEILILDKYCKERHVELVPSLSTFGHLYEALRSKSFRELCELEIGDEEYSFVDRMAHHTLDVTNPKSLDFVESMLLEFIPLFSSDKFNICCDETFDLGKGKSREKAEKLGVGKIYTEFLNKVYNIVKRFNKNVMFWGDIIVGYPELLSDIPEDLTCLTWNYHPQANDVATKIIAENNKVQYVCPGVGGWNMMMNLIEGSFSNIRRMVNHGMKYGAIGVLNTNWGDYGNINLLANSMPSMIYGAGISWNPKEEEFNEIFKSISLMEFGDESMKVVSLMDKLSKNQVAGWGELVRWKEKFNEREETKEEIKNIDTLKVFEGYKVASEVRREFIKLLKNTEDKEAIQSFIVSSKGWELIDKFFMVLLEREFNKKSLLDIDKKDLAKDLELWFYDYTSIWRKYNKESELNRIREVIVYMCSYLRGEGHHHHHH | soluble
16 | MSLHMSQTTQTDIITLGAVAAKIPQLIPKVPHLLNGLKQAYLRTPSTPAGLGIAFEKAVKRNPDGMALLFEDERYSYQELNEWANQIAHFYLSLGARKGDVIAVMVENRSELLATIVALAKIGVTAALVNTSQTGKVLTHSINLVQPIALIVGEEVRKCVDEIKQDLNLAQDRFHWFANQATRQDAGSAPRDYINLAEKIDHFPKFNPPTTQTVQGKDGLFYIYTSGTTGLPKAVIFTHSRWTLAYGTYGHVLALDENDVMYVTLPMYHATGIVVCWCGVIAGSATLALRRKYSTSAFWKDVQKFNASAIGYVGELCRYLMDAPPSELDRHHRVTKMIGNGMRPNIWDKFKQRFGVKEILELYASSEGNVGFSNIFNFDNTVGFSPTPYAVIAFDKEKNEPIRDQNGYCQKVKTGEVGLLVGKITRRSPFDGYTDPEKNKSVILKNVFKKGDSYFNTGDLVRDIGFRHAQFVDRLGDTFRWKGENVSTTEVENMLCEYEKIVEAVVYGVEIPNTNGRAGMAAITLNDQAEFNDEDMSAMVNTFKKCLPAYAIPVFLRVQKTVETTGTFKYQKNKLKEQAFDPSKTEERLLVLLPGESAYCEVTSEIFDNIQAYKYREGHHHHHH | soluble
17 | MSLIEERLKHYLEKQIPARDQYIEQMEREAHEQQVPIMDLLGMESLLHLLKMAAPARILEIGTAIGYSAIRMAQALPEATIVSIERDERRYEEAHKHVKALGLESRIELLFGDALQLGEKLELYPLFDVLFIDAAKGQYRRFFDMYSPMVRPGGLILSDNVLFRGLVAETDIEHKRHKQLATKIDTYNQWLLEHPQYDTRIFPVGDGIAISIKRETKGDTDDEKAEGHHHHHH | soluble
18 | MSLIELRDKTILIDGRPRLVLSGEVHYFRLRREDWQDRLDKLKAAGCNTVASYIPWLCHETVEGRIDLDGRSRPELDLGAFIDLCRANGLWFIARPGPFVMAELKNEGLPYWLYEKHPEIVPVGWDGKPATTHTVDYLAPGFLDAARRWYDAVMAVITPRLQPGGGNVIALQLDNEIGMLSWLSNCPDLTENVLADFAAWLKVRHRPESLRKRYPFDPDEPEARRAGIRSPAESYALALLRDLGHYMRDRFARYVATLRSWAETAGIRGIPFVVNIHGTGGGRALSFPIGISQLYPSYTQDFGYLSGSDFYLGNLTFDNFQDLYLCNAFMEAVHRPEQPLASMEFECGDGNYGNTYGNRLDPSAADFKARMCLAQGARLLNYYLFTGGHNYRLDPPPPDGDGRIAFTGERHGFAAPVDPDGRLNYSYPRLANLTRTVAAVADKLAAMWEEHDRVAFGFIPDYFMTESRHPASAAMATIVRNLEANRGPSAWETMARAMLLGGYRFGAVDLQNRPLDVKTTPVLALGSARYMDTAVQRKLADWLSAGGGLLLYGEVPLYGMEGEPCTLLAEALGTEISGFRQASERYFLALAADGWARPRPEVRSHFAQTFAAPLAEALLRVCDTGEICGFETAVGKGRAVVIGTAYPCDIALFRTALERLGAVAALRHDCENHGIFMTSTANAAGERFIHLLNLDGFDKRFHLYEHGRPLFDGHEIELRARDGVMLPLAMREGHHHHHH | not soluble
